The record followed here is patent publication US20250250357A1 (NANJING ZAIMING PHARMACEUTICAL, published 2025).

Substitutions are numbered along the chain they refer to.

Experiment [1] concerns the target T1, human MSLN-R3-his protein (human, UniProt Q13421 487-598).
T1 construct: Region 3 of human MSLN, His-tagged; also called human MSLN-R3 protein; hMSLN-R3-his; not shown: His tag
The experiment in a line: ELISA, coated MSLN-R3. On the technique in general: In an ELISA, binding on a coated surface is turned into a signal by an enzyme label.

For experiment [2], the target named is T2, human MSLN-R3-3 polypeptide (human).
T2 construct: also called human MSLN-R3-3 protein; hMSLN-R3-3
The experiment in a line: ELISA, coated MSLN-R3-3.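 Further: chimeric antibodies in serial dilution bound to plate-coated antigen for 2 h at 37 °C, with a negative control antibody alongside, and TMB colour development stopped with HCl.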

The target of experiment [3] is T3, human MSLN-R2-his protein (human, UniProt Q13421 391-486).
T3 construct: Region 2 of human MSLN, His-tagged; also called human MSLN-R2 protein; hMSLN-R2-his; not shown: His tag
T3 sequence (Q13421 other isoform, or with tags, fused parts or gaps): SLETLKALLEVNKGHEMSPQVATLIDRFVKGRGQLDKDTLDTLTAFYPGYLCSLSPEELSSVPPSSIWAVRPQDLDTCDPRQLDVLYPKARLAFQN
The experiment in a line: ELISA, coated MSLN-R2.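 Further: chimeric antibodies bound to blocked coated plates for 2 h at 37 °C, TMB colour development stopped with HCl, with a negative control antibody for comparison.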

Experiment [4] addresses T4, monkey MSLN full-length protein (NCBI: XP_028696439.1) expressed on HEK293T-monkey MSLN cells (monkey).
T4 construct: Whole encoded precursor
T4 chain: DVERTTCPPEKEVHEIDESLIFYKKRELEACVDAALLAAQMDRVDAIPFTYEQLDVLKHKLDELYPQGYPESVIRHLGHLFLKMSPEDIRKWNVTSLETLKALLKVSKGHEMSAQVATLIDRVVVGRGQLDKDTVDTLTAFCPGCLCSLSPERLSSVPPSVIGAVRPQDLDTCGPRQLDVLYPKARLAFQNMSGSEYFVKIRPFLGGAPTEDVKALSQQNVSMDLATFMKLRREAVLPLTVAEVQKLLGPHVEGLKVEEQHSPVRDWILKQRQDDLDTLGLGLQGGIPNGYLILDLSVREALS
Briefly: FACS on HEK293T-monkey MSLN cells.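 Further: flow cytometry binding of chimeric antibodies to the cells, with a 2 h incubation on ice.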

Experiment [5] deals with T5, human MSLN protein endogenously expressed on OVCAR3 tumor cells (human, UniProt Q13421 296-598).
T5 construct: whole, on cells; Endogenous target on OVCAR3 cells; kept apart from the recombinant full-length construct; also called mesothelin
T5 sequence (Q13421 other isoform, or with tags, fused parts or gaps): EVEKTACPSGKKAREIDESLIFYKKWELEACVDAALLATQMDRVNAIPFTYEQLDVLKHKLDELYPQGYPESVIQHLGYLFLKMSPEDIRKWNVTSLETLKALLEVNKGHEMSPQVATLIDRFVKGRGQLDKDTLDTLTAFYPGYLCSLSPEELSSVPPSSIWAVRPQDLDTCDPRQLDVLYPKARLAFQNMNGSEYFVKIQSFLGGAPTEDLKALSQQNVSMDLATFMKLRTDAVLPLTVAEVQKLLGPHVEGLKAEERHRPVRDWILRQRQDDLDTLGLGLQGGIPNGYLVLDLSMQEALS
Briefly: FACS on OVCAR3 cells.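 Further: flow cytometry binding of test antibodies to cells, 2 h incubation on ice, readout as cell mean fluorescence intensity.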

The target in experiment [6] is T6, human MSLN-R3 protein (Met487-Ser606 of NCBI AAH09272.1) expressed on HEK293T-hMSLN-R3 cells (human, UniProt Q13421 487-606).
T6 construct: also called Region3
T6 sequence (Q13421 495-614): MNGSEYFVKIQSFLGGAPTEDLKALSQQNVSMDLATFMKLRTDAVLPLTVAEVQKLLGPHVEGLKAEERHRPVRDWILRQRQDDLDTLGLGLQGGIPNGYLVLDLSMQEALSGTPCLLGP
The experiment in a line: FACS on HEK293T-hMSLN-R3 cells.

Experiment [7] deals with T7, human MSLN-R3 protein expressed on HEK293T cells (HEK293T-hMSLN-R3) (human, UniProt Q13421 487-606).
T7 construct: C-terminal limit uncertain
T7 sequence (Q13421 495-614): as above
Briefly: FACS on HEK293T-hMSLN-R3 cells.
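Wherever result is given: flow cytometry binding of test chimeric antibodies to cells after 2 h incubation on ice, with values derived from the mean fluorescence intensity of the cells.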

T1 sequence (Q13421 495-606): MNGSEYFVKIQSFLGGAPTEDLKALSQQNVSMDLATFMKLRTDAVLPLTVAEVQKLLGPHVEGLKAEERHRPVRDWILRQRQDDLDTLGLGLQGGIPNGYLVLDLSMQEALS

B1: S009-F1.35.24 (antibody, human IgG1, kappa, V domains shown)
VH: EVQLQQSEPELVKPGASVRISCKASGYSFTDYYMHWVKQSPENRLEWIGEINPSTGGTSYNPKFKDKATLTVDKSSSTAYMQLKSLTSEESAVYYCTRYHYYGSSSYVMDYWGQGTSVTVSS
VL: QIVLTQSPAILSASPGERVTMTCSASSSVYHMHWFQQKSGTSPKRWVYDTSKLASGVPARFSGSGSGTSYSLTISSMEAEDAATYYCQHWRTNPLTFGAGTKLELKR
notes: Human-murine chimeric antibody, human IgG1/kappa constant regions
Consider B1, for which, in experiment [1], the “OD450 at 0.0001 nM” value turned out to be 0.05 OD450, the “OD450 at 0.001 nM” value was 0.05 OD450, the “OD450 at 0.01 nM” value was determined as 0.05 OD450 and the “OD450 at 0.1 nM” value was 0.05 OD450. Besides, in experiment [1], the “OD450 at 1 nM” value is 0.05 OD450, the “OD450 at 10 nM” value stood at 0.05 OD450, the “OD450 at 100 nM” value was found to be 0.06 OD450 and the “OD450 at none (no antibody)” value worked out at 0.05 OD450. Besides, in experiment [2], the “OD450 at 0.0001 nM” value was determined as 0.07 OD450, the “OD450 at 0.001 nM” value is 0.07 OD450, the “OD450 at 0.01 nM” value was 0.07 OD450 and the “OD450 at 0.1 nM” value was 0.08 OD450. In experiment [2], the “OD450 at 1 nM” value was 0.07 OD450, the “OD450 at 10 nM” value was determined as 0.07 OD450, the “OD450 at 100 nM” value was found to be 0.15 OD450 and the “OD450 at none (no antibody)” value is 0.07 OD450. Further, in experiment [3], the “OD450 at 0.0001 nM” value is 0.04 OD450, the “OD450 at 0.001 nM” value was 0.05 OD450, the “OD450 at 0.01 nM” value is 0.05 OD450 and the “OD450 at 0.1 nM” value came out at 0.04 OD450. Also, in experiment [3], the “OD450 at 1 nM” value worked out at 0.05 OD450, the “OD450 at 10 nM” value stood at 0.05 OD450, the “OD450 at 100 nM” value stood at 0.06 OD450 and the “OD450 at none (no antibody)” value was determined as 0.05 OD450.

B2: S009-F1.25.10 (antibody, human IgG1, kappa, V domains shown)
VH: EVQLQQSGPELVKPGASLKISCKASGYSFTDYTMNWVKQSHGKNLEWIGLFNPYNGGISYNQKFKGKATLTVDKSSNTAYMELLSLTSDDSAVYFCARDGRGGFYAMDYWGQGTSVTVSS
VL: DIQMTQTTSSLSASLGDRVTISCRASQDISIYLNWYQQKPDGPVKLLIYYTSRLHSGVPSRFSGSGSGTDFSLTISNLEQEDIATYFCQQGYTLPPWTFGGGTKLEIKR
notes: as for B1
With B2, in experiment [1], the “OD450 at 0.0001 nM” value came out at 0.05 OD450, the “OD450 at 0.001 nM” value was found to be 0.05 OD450, the “OD450 at 0.01 nM” value was found to be 0.09 OD450 and the “OD450 at 0.1 nM” value came to 0.34 OD450. For the same molecule, in experiment [1], the “OD450 at 1 nM” value stood at 1.44 OD450, the “OD450 at 10 nM” value is 2.07 OD450, the “OD450 at 100 nM” value is 2.81 OD450 and the “OD450 at none (no antibody)” value was 0.05 OD450. For the same molecule, in experiment [2], the “OD450 at 0.0001 nM” value was determined as 0.07 OD450, the “OD450 at 0.001 nM” value was determined as 0.13 OD450, the “OD450 at 0.01 nM” value was 0.59 OD450 and the “OD450 at 0.1 nM” value was 1.82 OD450. Also, in experiment [2], the “OD450 at 1 nM” value came to 2.17 OD450, the “OD450 at 10 nM” value was determined as 2.41 OD450, the “OD450 at 100 nM” value was determined as 2.78 OD450 and the “OD450 at none (no antibody)” value was 0.07 OD450. Moreover, in experiment [3], the “OD450 at 0.0001 nM” value worked out at 0.04 OD450, the “OD450 at 0.001 nM” value stood at 0.04 OD450, the “OD450 at 0.01 nM” value stood at 0.04 OD450 and the “OD450 at 0.1 nM” value worked out at 0.04 OD450. Further, in experiment [3], the “OD450 at 1 nM” value is 0.04 OD450, the “OD450 at 10 nM” value was found to be 0.05 OD450, the “OD450 at 100 nM” value is 0.05 OD450 and the “OD450 at none (no antibody)” value amounted to 0.05 OD450.

B3: S009-F7.18.10 (antibody, human IgG1, kappa, V domains shown)
VH: QVQLQQSGAELVRPGTSVKVSCKASGYAFTNYLIEWVKQRPGQGLEWIGVINPGSGGTKYNEKFKGKATLTADKSSSTAYMQLSSLTSEDSAVYFCASDYDYDPFAYWGQGTLVTVSA
VL: DIVMTQSHKFMSTSVGDRVSITCKASQDVSTAVAWYQRKPGQSPKLLIYWASTRHTGVPDRFTGSGSGTDYTLTISYMQAEDLALYYCQQHYSTPYTFGGGTKLEIKR
notes: human-murine chimeric antibody, human IgG1/kappa constant regions
As to B3, in experiment [4], the EC50 was 0.47 nM and the “Maximum mean fluorescence intensity” value was determined as 50600. Also, in experiment [5], the EC50 was 3.29 nM and the “Maximum mean fluorescence intensity” value stood at 29900. In experiment [6], the “Maximum mean fluorescence intensity” value is 39 and the binding result is “no binding”.

B4: S009-F7.6.17 (antibody, human IgG1, kappa, V domains shown)
VH: QVQLQQSGAELARPGASVKMSCKASGYTFTTYTMHWVKQRPGQGLEWIGYISPTGDFTKYNQKFKDKATLTTDKSSNTAFMQLSSLTSEDSAVYYCARWNGTVWFAYWGQGTLVTVSA
VL: DIVMTQSQKFMSTSVGDRVTVTCKASQALGTNVAWYQQKPGQSPKVLIYSASYRYSGVPYRFAGGGSGTDFTLTITNVQSEDLAEYFCQQYNNYPLTFGAGTKLELKR
notes: as for B3
Take B4: the EC50 was determined as 0.7 nM in experiment [4], 0.99 nM in experiment [5] and 0.31 nM in experiment [6]. For the same molecule, the “Maximum mean fluorescence intensity” value was 56100 in experiment [4], 31800 in experiment [5] and 6420 in experiment [6].

B5: Tab106 (YP218, hIgG1) (antibody, V domains shown)
VH: QQQLEESGGGLVKPEGSLTLTCKASGFDLGFYFYACWVRQAPGKGLEWIACIYTAGSGSTYYASWAKGRFTISKASSTTVTLQMTSLAAADTATYFCARSTANTRSTYYLNLWGPGTLVTVSS
VL: DVVMTQTPASVSEPVGGTVTIKCQASQRISSYLSWYQQKPGQRPKLLIFGASTLASGVPSRFKGSGSGTEYTLTISDLECADAATYYCQSYAYFDSNNWHAFGGGTEVVVRT
notes: control antibody; YP218 VH and VL in human IgG1 CH and CL vectors; also called YP218 human IgG1 antibody
Turning to B5, in experiment [7], a half-maximal response (EC50) required 1 nM and the “Maximum mean fluorescence intensity” value came to 24500.

B6: S009-F7.11.11 (antibody, human IgG1, kappa, V domains shown)
VH: EVQLQQSGPELVKPGASVKIPCKASGYTITDYNMDWVKQSRGKSLEWIGDVFPYNGDSIYNQKFEGRATLTVDKYSSTAYMELRGLTSEDTAVYFCARRKTGTGYFDVWGTGTTVTVSS
VL: QLVLTQSPAIMSASPGEKVTLTCSASSSVSSTYLSWYLQKPGSSPKLWIYSTSNLASGVPARFSGSGSGTSYSLTISSMEAEDAASYFCHQWSSYPYTFGGGTKLEIKR
notes: as for B3
Turning to B6, the EC50 was determined as 0.41 nM in experiment [4], 0.86 nM in experiment [5] and 0.28 nM in experiment [6]. Moreover, the results for the “Maximum mean fluorescence intensity” value in experiment [4], in experiment [5] and in experiment [6] were 49500, 31800 and 6260, respectively.

B7: S009-F7.12.13 (antibody, human IgG1, kappa, V domains shown)
VH: EVQLQQSGPELVKPGASVKIPCKASGYTFTDYNMDWVKQSHGKGLEWIGDINPNTDDTIYNQKFNGKATLTVDKSSSTAYMELRSLTSEDTAVYYCSRRLIGTGYFDVWGTGTTVTVSS
VL: B6 VL with L2I, S30I, S35C, L38R, K46E, S94N, E106G, I107M
notes: as for B3
For the molecule B7, the results for the EC50 in experiment [4], in experiment [5] and in experiment [6] were 6.34 nM, 0.32 nM and 0.12 nM, respectively. For the same molecule, the “Maximum mean fluorescence intensity” value is 7630 in experiment [4], 21400 in experiment [5] and 6610 in experiment [6].

B8: S009-F7.2.3 (antibody, human IgG1, kappa, V domains shown)
VH: ELQLVESGGDLVKPGGSLKLSCAASGFTFSSNGMSWLRQTPDKRLEWVATISSGGRYTYYPDSVKGRFTISRDNAKNTLYLQMSSLKSEDTAMYYCARRGIYDYFDCWGQGTTLTVSS
VL: DIQMTQSPASLSISVGETVTITCRASENIHSSLAWYQQKQGKSPQLLVYAATNLADGVPSRFSGSGSGSQYSLKINSLQSEDFGTYYCQHFWGTPWTFGGGTKLDIKR
notes: as for B3
As to B8, in experiment [5], the EC50 stood at 1.74 nM and the “Maximum mean fluorescence intensity” value came out at 22800. In addition, in experiment [6], the “Maximum mean fluorescence intensity” value was determined as 33 and the binding result is on record as “no binding”.

For orientation: EC50 means the concentration giving half of the maximal effect.
